Reference: patent publication US20190055295A1

Target: human FSH receptor (human) (UniProt P23945)
Assay: cell-based or functional assay

Sequence of human FSH receptor (human) (P23945 18-695): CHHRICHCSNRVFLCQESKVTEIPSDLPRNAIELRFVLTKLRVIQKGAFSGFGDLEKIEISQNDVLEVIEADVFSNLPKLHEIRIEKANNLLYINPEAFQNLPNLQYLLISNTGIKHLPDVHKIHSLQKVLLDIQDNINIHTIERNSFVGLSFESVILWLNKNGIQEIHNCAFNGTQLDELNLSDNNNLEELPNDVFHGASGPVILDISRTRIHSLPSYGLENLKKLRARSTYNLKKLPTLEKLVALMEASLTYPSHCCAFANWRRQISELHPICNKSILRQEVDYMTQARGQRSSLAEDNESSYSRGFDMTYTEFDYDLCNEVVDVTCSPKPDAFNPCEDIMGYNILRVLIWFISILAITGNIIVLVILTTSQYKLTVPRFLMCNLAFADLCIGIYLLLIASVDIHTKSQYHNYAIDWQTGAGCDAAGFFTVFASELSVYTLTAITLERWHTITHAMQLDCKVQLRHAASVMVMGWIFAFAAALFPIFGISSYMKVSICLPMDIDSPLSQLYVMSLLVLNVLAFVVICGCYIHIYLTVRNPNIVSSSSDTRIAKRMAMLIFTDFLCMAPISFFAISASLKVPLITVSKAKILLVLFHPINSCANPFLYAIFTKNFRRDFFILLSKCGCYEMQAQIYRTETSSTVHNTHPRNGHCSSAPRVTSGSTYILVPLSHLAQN

**Q.** Which results are given for “FSH-Fc/Fc heterodimer (from UniProt P01215 25-116; P0DOX5 223-449) (Fc fusion)”?
**A.** 50% effective concentration (EC50) of cAMP production in CHO-FSHR cells: 0.204 nM; in vitro biological activity relative to Gonal-F (cAMP production in CHO-FSHR cells): 50%
